Assay results from the supplement of paper PMC9732359.
± gives the uncertainty stated by the source.

Assay: protein stability index of a GFP-peptide fusion (yeast GPS) (PSI 1-4); higher = more stable; sorted into four equal gates, so the index is relative within each strain
How it was run: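 Plasmids isolated from each sorting gate were PCR-amplified and Illumina-sequenced, and barcodes assigned the reads to strains. The gates, four of equal size, were set by GFP/Cherry fluorescence ratio on mid-log cultures in leucine-free medium. These cultures were yeast carrying a pooled library of tiled 17-residue yeast protein peptides fused downstream of GFP on a plasmid that also expresses Cherry. The protein stability index is the sum of every gate's read frequency times its gate number.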

Sequence | protein stability index (doa10∆) | protein stability index (pdr5∆) | protein stability index (san1∆) | protein stability index (ubr1∆)
AAAFSQQQNASSKLYQM [GAL11] | 2.71 ± 0.097 | 2.86 ± 0.071 | 2.82 ± 0.045 | 3.25 ± 0.072
AAAGGDAAAEEEKEEEA [RPP1B] | 3.32 ± 0.21 | 3.46 ± 0.16 | 3.16 ± 0.2 | 3.08 ± 0.23
AAEFRYKYGYDMPCDVL [SCL1] | 2.64 ± 0.078 | 2.79 ± 0.057 | 2.69 ± 0.054 | 2.33 ± 0.059
AAEPMDSKMIQDLSRNT [SNU114] | 2.93 ± 0.18 |  | 3.18 ± 0.19 | 
AAGVERLIFYPDEYEQL [PRE3] | 2.96 ± 0.14 | 2.86 ± 0.13 | 3.1 ± 0.093 | 2.69 ± 0.16
AAIHAKRVTIQKKDIKL [HHT1] | 2.92 ± 0.086 | 3.04 ± 0.12 | 3.14 ± 0.091 | 3.1 ± 0.075
AAIKDLDDFGEEELFEV [RRP43] | 2.46 ± 0.11 | 2.49 ± 0.14 | 2.17 ± 0.13 | 
AALDITNVQRIAAYIRR [SMC1] | 3.08 ± 0.16 | 3.07 ± 0.17 | 3.24 ± 0.13 | 3.09 ± 0.091
AALDLSHTQNIGHLIKT [SMC2] | 2.88 ± 0.083 | 2.47 ± 0.063 | 2.27 ± 0.087 | 2.72 ± 0.046
AALFRLHKFLTKWGLIN [SWI3] | 2.83 ± 0.22 |  | 2.94 ± 0.19 | 2.66 ± 0.23
AALKKTRKAARPQKLRA [RPL6A] | 2.96 ± 0.071 | 3.09 ± 0.05 | 2.97 ± 0.043 | 3.16 ± 0.055
AAQIFGSYNAFEPASRL [COR1] | 2.33 ± 0.07 | 1.55 ± 0.064 | 1.41 ± 0.16 | 1.51 ± 0.082
AAQTLLQMDYKDDMKVD [PRE9] | 3.3 ± 0.1 | 3.3 ± 0.068 | 3.25 ± 0.063 | 3.26 ± 0.084
AARKAANKEKRAIILER [RPL7A] | 1.19 ± 0.051 | 1.37 ± 0.058 | 1.14 ± 0.078 | 1.27 ± 0.14
AASALDEKEKQLAVANE [SIR4] | 2.92 ± 0.081 | 3.28 ± 0.072 | 3.3 ± 0.055 | 3.36 ± 0.073
AASKVKLEEESKRGNDK [RPC53] | 3.27 ± 0.089 | 3.41 ± 0.098 | 3.38 ± 0.071 | 3.25 ± 0.064
AATVRSTIRRLREMVEA [RPL43A] | 3.02 ± 0.084 | 2.8 ± 0.056 | 2.74 ± 0.086 | 3.09 ± 0.064
AAVIALGFVLLRDYTTV [RPN2] | 1.59 ± 0.066 | 1.21 ± 0.081 | 1.22 ± 0.082 | 1.27 ± 0.048
ADAGIELVDMAGAGEAN [MTR3] | 2.76 ± 0.11 | 2.69 ± 0.084 | 2.32 ± 0.1 | 2.9 ± 0.086
ADAVTKDLKLRREDEII [REC8] | 3.08 ± 0.11 | 3.31 ± 0.1 | 3.3 ± 0.065 | 3.03 ± 0.062
ADEPVKASLLLHVLVAH [FAS2] | 1.85 ± 0.043 | 1.59 ± 0.035 | 1.3 ± 0.059 | 1.43 ± 0.028
ADINSNRLSNPQKNLLL [YOR098C/NUP1] | 3.11 ± 0.069 | 3 ± 0.07 | 2.81 ± 0.065 | 2.88 ± 0.082
ADVHFLDCDGGFIDASC [RRP45] | 3.12 ± 0.09 | 2.9 ± 0.098 | 3.14 ± 0.055 | 2.9 ± 0.054
ADVLSILAMTYSENGKH [RPN1] | 1.64 ± 0.066 | 1.9 ± 0.1 | 1.45 ± 0.11 | 1.36 ± 0.052
ADVLVDRVVSSDSLDIA [SRP72] | 1.95 ± 0.056 | 1.58 ± 0.072 | 1.42 ± 0.12 | 1.81 ± 0.081

Sequence | protein stability index (doa10∆) | protein stability index (pdr5∆) | protein stability index (san1∆) | protein stability index (ubr1∆)
AEDGSRSTKDMIDAVFE [SNF6] | 3.18 ± 0.06 | 3.38 ± 0.048 | 3.31 ± 0.042 | 3.14 ± 0.046
AEEDSLLSGEDLTLDDI [YJL039C/NUP192] | 3.62 ± 0.13 | 3.4 ± 0.11 |  | 3.43 ± 0.13
AEEKREAVIDEKLEVIA [ITC1] | 3.04 ± 0.15 | 2.62 ± 0.16 | 3.03 ± 0.14 | 3.13 ± 0.082
AEFILKNRSTIFWGIRL [BRR2] | 2.73 ± 0.056 | 1.93 ± 0.063 | 1.52 ± 0.089 | 1.77 ± 0.048
AEKFVPIDIFQIIRRVK [SIR3] | 1.57 ± 0.28 | 1.46 ± 0.15 |  | 1.16 ± 0.2
AELLNEWHSSLTLKEAE [PUP2] |  | 2.93 ± 0.14 |  | 3.02 ± 0.17
AENQTGESTVESEKLVT [RPC82] | 3.17 ± 0.089 | 3.29 ± 0.11 | 3.15 ± 0.11 | 3.45 ± 0.29
AERDSQGGFYKQQDAEE [UBP6] | 3.35 ± 0.08 | 3.38 ± 0.089 | 3.07 ± 0.077 | 3.28 ± 0.055
AESMCQELELPGEFVTA [SNF5] | 2.4 ± 0.061 | 2.53 ± 0.057 | 2.62 ± 0.048 | 2.46 ± 0.081
AETLAEELINAAKGSST [RPS5] | 2.15 ± 0.083 | 2.51 ± 0.095 | 2.32 ± 0.1 | 2.09 ± 0.088
AFDIELSEFGIKKMLHL [YCS4] | 3.11 ± 0.067 | 3.09 ± 0.088 | 2.67 ± 0.1 | 3.12 ± 0.063
AFLALVDAGIALNSMCA [RRP46] | 2.27 ± 0.096 | 2.69 ± 0.11 | 1.7 ± 0.08 | 2.59 ± 0.076
AFSFGAKSNEDKQDGTA [YJL041W/NSP1] | 3.24 ± 0.13 | 2.98 ± 0.16 | 3 ± 0.2 | 3.44 ± 0.14
AFSYEQAQLRIDDKTQN [DIS3] | 3.32 ± 0.21 | 2.81 ± 0.14 | 2.87 ± 0.12 | 2.25 ± 0.24
AGGGSNKSSVRPTGGAN [MED6] | 2.93 ± 0.09 | 3.12 ± 0.1 | 2.79 ± 0.096 | 3.11 ± 0.077
AGLGKTNELWARLAILK [YGR119C/NUP57] | 2.38 ± 0.086 | 1.67 ± 0.091 | 2.02 ± 0.2 | 3.56 ± 0.14
AGLTRSDRSLSEDLFAD [BRR2] | 3.04 ± 0.26 |  | 3.56 ± 0.2 | 
AGQNATVAVMSYSGYDI [RET1] | 1.32 ± 0.039 | 1.38 ± 0.045 | 1.33 ± 0.086 | 1.66 ± 0.036
AGVLNGTLEYGTCFGGS [RET1] | 2.97 ± 0.051 | 2.91 ± 0.057 | 2.99 ± 0.051 | 3.08 ± 0.043
AGVQGSKVSKQQAKGAF [RPL24B] | 3.08 ± 0.15 | 3.21 ± 0.11 | 3.19 ± 0.055 | 3.21 ± 0.081
AHCILGIGGDHAKFSPV [RPC40] | 2.59 ± 0.085 | 2.82 ± 0.15 | 2.41 ± 0.12 | 2.85 ± 0.068
AHKLKKSLDSIPMSKTI [FAS2] | 3 ± 0.083 | 3.01 ± 0.078 | 3.01 ± 0.058 | 2.8 ± 0.083
AHRGIRHFWGLRVRGQH [RPS18A] | 2.82 ± 0.1 | 2.73 ± 0.083 | 2.44 ± 0.081 | 2.66 ± 0.053
AHRNGIKKPKTYKYPSL [RPL29] | 3.42 ± 0.11 | 2.96 ± 0.15 | 3.19 ± 0.28 | 2.95 ± 0.1
